Ends that are not written are not given here. * marks the point of attachment. Biotin = O=C1N[C@H]2[C@H](CS[C@H]2CCCCC(=O)*)N1
T1: GST-TAX-IP43 PDZ domain fusion protein (human, UniProt Q13884 109-180)
T1 construct: also called TAX43; not shown: glutathione S-transferase encoded by vector pGEX-3X (Pharmacia)
T1 sequence: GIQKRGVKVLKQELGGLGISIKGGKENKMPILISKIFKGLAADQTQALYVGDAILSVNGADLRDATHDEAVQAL

T2: GST-PTN-4 PDZ domain fusion protein (Homo sapiens (Human), UniProt P29074 517-605)
T2 construct: also called protein-tyrosine phosphatase meg1; not shown: glutathione S-transferase encoded by vector pGEX-3X (Pharmacia)
T2 sequence: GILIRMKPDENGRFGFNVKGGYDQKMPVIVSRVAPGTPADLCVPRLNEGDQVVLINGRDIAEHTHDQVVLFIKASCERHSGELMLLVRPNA

T3: GST-MPP1 PDZ domain fusion protein (Homo sapiens (Human), UniProt Q00013 67-152)
T3 construct: also called p55; 55 Kd erythrocyte membrane protein; not shown: glutathione S-transferase encoded by vector pGEX-3X (Pharmacia)
T3 sequence: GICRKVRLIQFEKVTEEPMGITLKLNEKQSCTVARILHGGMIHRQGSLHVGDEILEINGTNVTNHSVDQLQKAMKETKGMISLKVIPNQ

T4: GST-prIL16 fusion protein (PDZ domains 1-2) (Homo sapiens (Human), UniProt Q14005 1111-1324)
T4 construct: also called putative interleukin 16 precursor; not shown: glutathione S-transferase encoded by vector pGEX-3X (Pharmacia)
T4 sequence: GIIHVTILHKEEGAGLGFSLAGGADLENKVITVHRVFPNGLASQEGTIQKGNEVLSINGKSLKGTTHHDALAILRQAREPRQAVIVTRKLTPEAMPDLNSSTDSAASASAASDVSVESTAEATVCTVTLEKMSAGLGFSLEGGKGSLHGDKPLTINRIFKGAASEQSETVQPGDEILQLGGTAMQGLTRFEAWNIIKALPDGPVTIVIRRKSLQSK

T5: GST-AF6 PDZ domain fusion protein (Homo sapiens (Human), UniProt P55196 1001-1093)
T5 construct: also called af-6 protein; not shown: glutathione S-transferase encoded by vector pGEX-3X (Pharmacia)
T5 sequence: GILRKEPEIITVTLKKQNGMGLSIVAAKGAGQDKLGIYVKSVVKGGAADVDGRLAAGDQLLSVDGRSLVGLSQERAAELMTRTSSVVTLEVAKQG

T6: GST-RGS12 PDZ domain fusion protein (human, UniProt O14924 17-85)
T6 construct: also called human regulator of G-protein signalling 12; not shown: glutathione S-transferase encoded by vector pGEX-3X (Pharmacia)
T6 sequence: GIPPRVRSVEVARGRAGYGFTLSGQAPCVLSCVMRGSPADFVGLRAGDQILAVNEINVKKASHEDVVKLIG

T7: GST-PDZK1 fusion protein (PDZ domains 2-4) (Homo sapiens, UniProt Q5T2W1 134-457)
T7 construct: not shown: glutathione S-transferase encoded by vector pGEX-3X (Pharmacia)
T7 sequence: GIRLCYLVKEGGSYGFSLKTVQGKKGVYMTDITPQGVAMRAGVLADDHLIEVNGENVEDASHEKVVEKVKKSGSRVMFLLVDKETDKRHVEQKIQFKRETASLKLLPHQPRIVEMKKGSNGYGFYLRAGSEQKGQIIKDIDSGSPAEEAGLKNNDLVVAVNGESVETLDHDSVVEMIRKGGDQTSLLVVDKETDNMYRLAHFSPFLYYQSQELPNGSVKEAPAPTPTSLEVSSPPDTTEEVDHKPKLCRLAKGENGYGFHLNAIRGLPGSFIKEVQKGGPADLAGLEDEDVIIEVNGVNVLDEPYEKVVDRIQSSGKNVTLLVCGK

T8: KIAA0807 (PDZ domain)-GST fusion protein (human, UniProt Q6P0Q8 1104-1192)
T8 construct: also called K807; KIAA807; not shown: glutathione S-transferase encoded by vector pGEX-3X (Pharmacia)
T8 sequence: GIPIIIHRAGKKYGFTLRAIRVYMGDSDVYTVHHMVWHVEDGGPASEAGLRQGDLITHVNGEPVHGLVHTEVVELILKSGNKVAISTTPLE

T9: TAX-IP2L PDZ-GST fusion protein (Homo sapiens (Human), UniProt Q8TF64 107-197)
T9 construct: Order of GST and PDZ part and limits not seen in the excerpts
T9 sequence: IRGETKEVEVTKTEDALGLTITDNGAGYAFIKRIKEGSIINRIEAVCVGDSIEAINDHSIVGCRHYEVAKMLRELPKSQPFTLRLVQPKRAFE

T10: MINT3 PDZ-GST fusion protein
T10 construct: Order of GST and PDZ part and limits not seen in the excerpts
T10 chain: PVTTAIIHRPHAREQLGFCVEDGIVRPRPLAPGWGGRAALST

T11: K858 PDZ-GST fusion protein (Homo sapiens (Human), UniProt Q8WWI1 1038-1131)
T11 construct: Order of GST and PDZ part and limits not seen in the excerpts
T11 sequence: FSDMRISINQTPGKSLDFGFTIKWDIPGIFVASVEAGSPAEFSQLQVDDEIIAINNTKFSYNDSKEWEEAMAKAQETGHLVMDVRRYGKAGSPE

T12: ConEn PDZ-GST fusion protein (Homo sapiens (Human), UniProt Q969H4 193-287)
T12 construct: The label ConEn is not explained in the excerpts
T12 sequence: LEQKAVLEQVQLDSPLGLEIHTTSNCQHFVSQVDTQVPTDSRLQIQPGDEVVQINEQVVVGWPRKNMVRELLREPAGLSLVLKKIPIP

B1: CD5 C-terminal peptide AA49L (peptide)
peptide: Biotin-SMQPDNSSDSDYDLHGAQRL
notes: Only the last four residues are seen in the excerpts
B2: CC CKR-4 C-terminal peptide AA44L (peptide)
peptide: Biotin-DTPSSSYTQSTMDHDLHDAL
notes: as for B1

Target: T1, GST-TAX-IP43 PDZ domain fusion protein
Assay: A/G assays

| binding result | Binder |
| --- | --- |
| no binding | Biotin-ARHRVTSYTSSSVNVSSNL [CDW128A (IL8RA) C-terminal peptide AA29.1L, biotinylated] |
| no binding | Biotin-HKAEIHAQPSDKERLTSDA (also called CD49F (Aform, alpha6)) [CD49F C-terminal peptide AA12L, biotinylated] |
| no binding | B1 |
| no binding | B2 |

Target: T2, GST-PTN-4 PDZ domain fusion protein
Assay: A/G assays

| binding result | Binder |
| --- | --- |
| no binding | Biotin-ARHRVTSYTSSSVNVSSNL [CDW128A (IL8RA) C-terminal peptide AA29.1L, biotinylated] |
| no binding | Biotin-HKAEIHAQPSDKERLTSDA (also called CD49F (Aform, alpha6)) [CD49F C-terminal peptide AA12L, biotinylated] |
| no binding | B1 |
| no binding | B2 |

Target: T3, GST-MPP1 PDZ domain fusion protein
Assay: A/G assays

| binding result | Binder |
| --- | --- |
| no binding | Biotin-ARHRVTSYTSSSVNVSSNL [CDW128A (IL8RA) C-terminal peptide AA29.1L, biotinylated] |
| no binding | Biotin-HKAEIHAQPSDKERLTSDA (also called CD49F (Aform, alpha6)) [CD49F C-terminal peptide AA12L, biotinylated] |
| no binding | B1 |
| no binding | B2 |

Target: T4, GST-prIL16 fusion protein (PDZ domains …)
Assay: A/G assays

| binding result | Binder |
| --- | --- |
| no binding | Biotin-ARHRVTSYTSSSVNVSSNL [CDW128A (IL8RA) C-terminal peptide AA29.1L, biotinylated] |
| no binding | Biotin-HKAEIHAQPSDKERLTSDA (also called CD49F (Aform, alpha6)) [CD49F C-terminal peptide AA12L, biotinylated] |
| no binding | B1 |
| no binding | B2 |

Target: T5, GST-AF6 PDZ domain fusion protein
Assay: A/G assays

| binding result | Binder |
| --- | --- |
| no binding | Biotin-ARHRVTSYTSSSVNVSSNL [CDW128A (IL8RA) C-terminal peptide AA29.1L, biotinylated] |
| no binding | Biotin-HKAEIHAQPSDKERLTSDA (also called CD49F (Aform, alpha6)) [CD49F C-terminal peptide AA12L, biotinylated] |
| no binding | B1 |
| no binding | B2 |

Target: T6, GST-RGS12 PDZ domain fusion protein
Assay: A/G assays

| binding result | Binder |
| --- | --- |
| no binding | Biotin-ARHRVTSYTSSSVNVSSNL [CDW128A (IL8RA) C-terminal peptide AA29.1L, biotinylated] |
| no binding | Biotin-HKAEIHAQPSDKERLTSDA (also called CD49F (Aform, alpha6)) [CD49F C-terminal peptide AA12L, biotinylated] |
| no binding | B1 |
| no binding | B2 |

Target: T7, GST-PDZK1 fusion protein (PDZ domains …)
Assay: A/G assays

| binding result | Binder |
| --- | --- |
| no binding | Biotin-ARHRVTSYTSSSVNVSSNL [CDW128A (IL8RA) C-terminal peptide AA29.1L, biotinylated] |
| no binding | Biotin-HKAEIHAQPSDKERLTSDA (also called CD49F (Aform, alpha6)) [CD49F C-terminal peptide AA12L, biotinylated] |
| no binding | B1 |
| no binding | B2 |

Target: T13, GST-TIAM1 PDZ domain fusion protein (Homo sapiens (Human), UniProt Q13009 845-931)
T13 construct: also called TLAM1; T-lymphoma invasion and metastasis inducing protein 1; not shown: glutathione S-transferase encoded by vector pGEX-3X (Pharmacia)
Assay: A/G assays

T13 sequence (Q13009 other isoform, or with tags, fused parts or gaps): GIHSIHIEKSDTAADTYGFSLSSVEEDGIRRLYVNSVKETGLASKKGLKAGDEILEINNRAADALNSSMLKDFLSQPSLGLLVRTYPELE

| binding result | Binder |
| --- | --- |
| no binding | Biotin-ARHRVTSYTSSSVNVSSNL [CDW128A (IL8RA) C-terminal peptide AA29.1L, biotinylated] |
| no binding | Biotin-HKAEIHAQPSDKERLTSDA (also called CD49F (Aform, alpha6)) [CD49F C-terminal peptide AA12L, biotinylated] |
| no binding | B1 |
| no binding | B2 |

Target: T8, KIAA0807 (PDZ domain)-GST fusion protein
Assay: A/G assays

| binding result | Binder |
| --- | --- |
| no binding | Biotin-ARHRVTSYTSSSVNVSSNL [CDW128A (IL8RA) C-terminal peptide AA29.1L, biotinylated] |
| no binding | Biotin-HKAEIHAQPSDKERLTSDA (also called CD49F (Aform, alpha6)) [CD49F C-terminal peptide AA12L, biotinylated] |
| no binding | B1 |
| no binding | B2 |

Target: T9, TAX-IP2L PDZ-GST fusion protein
Assay: A/G assays

| binding result | Binder |
| --- | --- |
| no binding | Biotin-ARHRVTSYTSSSVNVSSNL [CDW128A (IL8RA) C-terminal peptide AA29.1L, biotinylated] |
| no binding | Biotin-HKAEIHAQPSDKERLTSDA (also called CD49F (Aform, alpha6)) [CD49F C-terminal peptide AA12L, biotinylated] |
| no binding | B1 |
| no binding | B2 |

Target: T10, MINT3 PDZ-GST fusion protein
Assay: A/G assays

| binding result | Binder |
| --- | --- |
| no binding | Biotin-ARHRVTSYTSSSVNVSSNL [CDW128A (IL8RA) C-terminal peptide AA29.1L, biotinylated] |
| no binding | Biotin-HKAEIHAQPSDKERLTSDA (also called CD49F (Aform, alpha6)) [CD49F C-terminal peptide AA12L, biotinylated] |
| no binding | B1 |
| no binding | B2 |

Target: T14, PICK1 PDZ-GST fusion protein (Bos taurus (Bovine), UniProt Q2T9M1 17-105)
T14 construct: Order of GST and PDZ part and limits not seen in the excerpts
Assay: A/G assays

T14 sequence (Q2T9M1 other isoform, or with tags, fused parts or gaps limits assumed): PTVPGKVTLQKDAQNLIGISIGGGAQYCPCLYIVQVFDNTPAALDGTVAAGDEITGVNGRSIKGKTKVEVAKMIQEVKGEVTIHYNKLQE

| binding result | Binder |
| --- | --- |
| no binding | Biotin-ARHRVTSYTSSSVNVSSNL [CDW128A (IL8RA) C-terminal peptide AA29.1L, biotinylated] |
| no binding | Biotin-HKAEIHAQPSDKERLTSDA (also called CD49F (Aform, alpha6)) [CD49F C-terminal peptide AA12L, biotinylated] |
| no binding | B1 |
| no binding | B2 |

Target: T15, K316 PDZ-GST fusion protein (Homo sapiens (Human), UniProt Q14CM0 72-159)
T15 construct: Order of GST and PDZ part and limits not seen in the excerpts
Assay: A/G assays

T15 sequence (Q14CM0 72-159 limits assumed): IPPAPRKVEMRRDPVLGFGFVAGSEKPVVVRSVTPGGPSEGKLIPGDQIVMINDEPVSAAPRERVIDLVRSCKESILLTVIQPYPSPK

| binding result | Binder |
| --- | --- |
| no binding | Biotin-ARHRVTSYTSSSVNVSSNL [CDW128A (IL8RA) C-terminal peptide AA29.1L, biotinylated] |
| no binding | Biotin-HKAEIHAQPSDKERLTSDA (also called CD49F (Aform, alpha6)) [CD49F C-terminal peptide AA12L, biotinylated] |
| no binding | B1 |
| no binding | B2 |

Target: T11, K858 PDZ-GST fusion protein
Assay: A/G assays

| binding result | Binder |
| --- | --- |
| no binding | Biotin-ARHRVTSYTSSSVNVSSNL [CDW128A (IL8RA) C-terminal peptide AA29.1L, biotinylated] |
| no binding | Biotin-HKAEIHAQPSDKERLTSDA (also called CD49F (Aform, alpha6)) [CD49F C-terminal peptide AA12L, biotinylated] |
| no binding | B1 |
| no binding | B2 |

Target: T12, ConEn PDZ-GST fusion protein
Assay: A/G assays

| binding result | Binder |
| --- | --- |
| no binding | Biotin-ARHRVTSYTSSSVNVSSNL [CDW128A (IL8RA) C-terminal peptide AA29.1L, biotinylated] |
| no binding | Biotin-HKAEIHAQPSDKERLTSDA (also called CD49F (Aform, alpha6)) [CD49F C-terminal peptide AA12L, biotinylated] |
| no binding | B1 |
| no binding | B2 |

Target: T16, NSP PDZ-GST fusion protein (Homo sapiens (Human), UniProt Q92743 370-466)
T16 construct: The label NSP is not explained in the excerpts
Assay: A/G assays

T16 sequence (Q92743 other isoform, or with tags, fused parts or gaps limits assumed): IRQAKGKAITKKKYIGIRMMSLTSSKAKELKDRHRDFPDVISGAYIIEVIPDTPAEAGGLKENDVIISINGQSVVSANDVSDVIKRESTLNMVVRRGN

| binding result | Binder |
| --- | --- |
| no binding | Biotin-ARHRVTSYTSSSVNVSSNL [CDW128A (IL8RA) C-terminal peptide AA29.1L, biotinylated] |
| no binding | Biotin-HKAEIHAQPSDKERLTSDA (also called CD49F (Aform, alpha6)) [CD49F C-terminal peptide AA12L, biotinylated] |
| no binding | B1 |
| no binding | B2 |

Reference: patent publication US20050037969A1 (ARBOR VITA, published 2005)
